Substitutions are numbered along the chain they refer to. Names and notes keep the numbering of the source.
T1: soluble CD46 (UniProt P15529 35-343)
T1 construct: also called sCD46
T1 sequence: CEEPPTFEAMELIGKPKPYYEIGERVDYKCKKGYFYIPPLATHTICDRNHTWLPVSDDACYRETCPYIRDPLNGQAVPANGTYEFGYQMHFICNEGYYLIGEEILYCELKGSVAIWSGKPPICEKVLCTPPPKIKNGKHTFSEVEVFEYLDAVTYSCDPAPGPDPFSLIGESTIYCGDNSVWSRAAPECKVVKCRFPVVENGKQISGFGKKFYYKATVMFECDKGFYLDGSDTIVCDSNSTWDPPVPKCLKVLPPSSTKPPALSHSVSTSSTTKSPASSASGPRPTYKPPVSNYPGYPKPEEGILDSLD

T2: human DSG2 on cells (HeLa cells; polarized T84 cells) (human, UniProt Q14126 50-1118)
T2 sequence: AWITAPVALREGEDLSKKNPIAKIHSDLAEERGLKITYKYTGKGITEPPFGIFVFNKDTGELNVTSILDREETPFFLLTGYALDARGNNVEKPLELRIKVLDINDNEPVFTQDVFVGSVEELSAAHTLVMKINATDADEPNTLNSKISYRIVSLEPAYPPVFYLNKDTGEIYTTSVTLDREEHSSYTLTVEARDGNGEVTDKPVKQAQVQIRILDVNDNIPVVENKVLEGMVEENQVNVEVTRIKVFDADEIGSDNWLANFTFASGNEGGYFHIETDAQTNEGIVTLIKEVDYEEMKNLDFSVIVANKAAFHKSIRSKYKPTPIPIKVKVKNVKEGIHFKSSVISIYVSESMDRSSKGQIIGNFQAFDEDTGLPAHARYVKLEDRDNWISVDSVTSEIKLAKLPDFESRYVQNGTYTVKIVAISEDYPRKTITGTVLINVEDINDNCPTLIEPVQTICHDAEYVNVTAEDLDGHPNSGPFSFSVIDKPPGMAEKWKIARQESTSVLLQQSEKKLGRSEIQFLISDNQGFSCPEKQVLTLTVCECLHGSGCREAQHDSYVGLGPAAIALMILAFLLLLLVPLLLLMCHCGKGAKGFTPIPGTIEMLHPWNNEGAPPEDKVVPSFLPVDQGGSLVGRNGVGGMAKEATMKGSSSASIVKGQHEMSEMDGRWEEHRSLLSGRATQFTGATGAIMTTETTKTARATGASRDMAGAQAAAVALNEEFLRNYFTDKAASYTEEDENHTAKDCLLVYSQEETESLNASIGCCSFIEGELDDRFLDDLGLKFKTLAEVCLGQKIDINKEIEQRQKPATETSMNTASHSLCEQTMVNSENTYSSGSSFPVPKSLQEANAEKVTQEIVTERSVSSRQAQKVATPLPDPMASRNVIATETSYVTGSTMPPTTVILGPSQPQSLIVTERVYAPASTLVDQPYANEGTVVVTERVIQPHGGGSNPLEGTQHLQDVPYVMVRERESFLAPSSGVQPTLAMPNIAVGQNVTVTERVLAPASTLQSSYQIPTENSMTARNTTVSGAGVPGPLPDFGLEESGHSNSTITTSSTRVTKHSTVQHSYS

T3: Recombinant human DSG2 protein (Leinco Technologies) (human, UniProt Q14126 50-609)
T3 construct: also called soluble DSG2; soluble recombinant DSG2
T3 sequence: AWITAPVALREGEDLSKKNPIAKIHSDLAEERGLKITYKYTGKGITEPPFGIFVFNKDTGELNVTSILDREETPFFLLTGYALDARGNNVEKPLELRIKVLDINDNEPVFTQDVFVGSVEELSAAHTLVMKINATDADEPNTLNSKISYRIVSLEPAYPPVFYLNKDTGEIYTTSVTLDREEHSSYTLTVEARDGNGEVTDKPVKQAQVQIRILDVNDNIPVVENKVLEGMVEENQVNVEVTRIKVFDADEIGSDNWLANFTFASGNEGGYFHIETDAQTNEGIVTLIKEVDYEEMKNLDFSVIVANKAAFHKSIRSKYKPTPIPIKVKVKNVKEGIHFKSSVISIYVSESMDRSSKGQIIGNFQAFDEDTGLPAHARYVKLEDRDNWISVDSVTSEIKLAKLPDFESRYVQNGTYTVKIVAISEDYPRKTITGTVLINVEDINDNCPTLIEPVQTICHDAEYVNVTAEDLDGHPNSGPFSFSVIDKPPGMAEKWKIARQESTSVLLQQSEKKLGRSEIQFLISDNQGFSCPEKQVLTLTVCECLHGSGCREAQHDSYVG

B1: Ad3-S6/Kn (ligand)
chain: GVLSLKCVNPLTTASGSLQLKVGSGLTVDTTDGSLEENIKVNTPLTKSNHSINLPIGNGLQIEQNKLCSKLGNGLTFDSSNSIALKNNTLWTGPKPEANCIIEYGKQNPDSKLTLILVKNGGIVNGYVTLMGASDYVNTLFKNKNVSINVELYFDATGHILPDSSSLKTDLELKYKQTADFSARGFMPSTTAYPFVLPNAGTHNENYIFGQCYYKASDGALFPLEVTVMLNKRLPDSRTSYVMTFLWSLNAGLAPETTQATLITSPFTFSYIREDD
notes: also called wild-type Ad3 fibers
B2: dimeric Ad3 fiber knob mutant D261N, L296R (designed binder)
chain: MKVSALKEKVSALKEKVSALKEKVSALKEKVSALKEGSGGGSGGGSGGGSNSIALKNNTLWTGPKPEANCIIEYGKQNPDSKLTLILVKNGGIVNGYVTLMGASDYVNTLFKNKNVSINVELYFDATGHILPDSSSLKTDLELKYKQTADFSARGFMPSTTAYPFVLPNAGTHNENYIFGQCYYKASNGALFPLEVTVMLNKRLPDSRTSYVMTFLWSLNAGRAPETTQATLITSPFTFSYIREDD
notes: also called D261, L296R; combination of D261N and L296R
B3: K217E+F224S (protein)
chain: B2 chain with K144E, F151S, N188D, R223L
B4: dimeric Ad3 fiber knob mutant N186D, D261N, L296R (designed binder)
chain: B2 chain with N113D
notes: also called mutant with mutations in all three areas (N185, D261, L296)
B5: dimeric Ad3 fiber knob mutant V189G (designed binder)
chain: B2 chain with V116G, N188D, R223L
B6: dimeric Ad3 fiber knob mutant L296R (designed binder)
chain: B2 chain with N188D
B7: dimeric Ad3 fiber knob mutant N186D, D261N (designed binder)
chain: B2 chain with N113D, R223L
notes: also called combination of N186D and D261N
B8: dimeric Ad3 fiber knob mutant N186D (designed binder)
chain: B2 chain with N113D, N188D, R223L
B9: dimeric Ad3 fiber knob mutant E299V (designed binder)
chain: B2 chain with N188D, R223L, E226V
B10: dimeric Ad3 fiber knob mutant S190P (designed binder)
chain: B2 chain with S117P, N188D, R223L
notes: also called 5190P [sic]
B11: Ad3 fiber knob mutant E248G+K258E without dimerization domain (ligand)
chain: NKLCSKLGNGLTFDSSNSIALKNNTLWTGPKPEANCIIEYGKQNPDSKLTLILVKNGGIVNGYVTLMGASDYVNTLFKNKNVSINVELYFDATGHILPDSSSLKTDLELKYKQTADFSARGFMPSTTAYPFVLPNAGTHNGNYIFGQCYYEASDGALFPLEVTVMLNKRLPDSRTSYVMTFLWSLNAGLAPETTQATLITSPFTFSYIREDD
notes: range 108-319; not shown: N-terminal 6-His tag of pQE30 and linker
B12: Ad3 fiber knob mutant K217E+F224S without dimerization domain (ligand)
chain: B11 chain with K110E, F117S, G141E, E151K
notes: range 108-319; also called K217E/F224S mutant (non-dimerized form); not shown: N-terminal 6-His tag of pQE30 and linker
B13: Ad3 fiber knob mutant F224L without dimerization domain (ligand)
chain: B11 chain with F117L, G141E, E151K
notes: as for B11
B14: Ad3 fiber knob mutant N293S without dimerization domain (ligand)
chain: B11 chain with G141E, E151K, N186S
notes: range 108-319; also called N293S/noDD; not shown: N-terminal 6-His tag of pQE30 and linker

Tests used:
[1] = molecular target: T1, soluble CD46; assay: Western blot, soluble CD46 as probe, anti-CD46 mAb
[2] = molecular target: T2, human DSG2 on cells (HeLa cells; …); assay: cell-based or functional assay
[3] = molecular target: T3, Recombinant human DSG2 protein (Leinco …); assay: Western blot of dimeric knob (trimer band), soluble recombinant DSG2 as probe, anti-DSG2 mAb
[4] = molecular target: T2, human DSG2 on cells (HeLa cells; …); assay: attachment of 3H-labelled Ad3 virus (competitor) to HeLa cells pre-incubated with the dimeric knob
[5] = test system: polarized colon cancer T84 cells; assay: Transepithelial electrical resistance (TEER) permeability assay; type: cell-based; conditions: dimeric affinity-enhanced mutants; TEER at 4 hours; N=3
Protocol: FIG. 5. Correlation of reduced DSG2 binding with the ability to open epithelial junctions. A) Transepithelial electrical resistance (TEER) measured on polarized colon cancer T84 cells. Cells were cultured in transwell chambers until the TEER was constant, i.e. tight junctions had formed. A total of 5 μg of dimeric Ad3 fiber knobs in PBS was then added for 1 hour to the apical chamber. TEER was measured at the indicated time points. N=6. For time points 1.5 and 4 hours the difference between JO-1 vs D261N and N186D was significant (p<0.01). The arrows indicate the addition and removal of Ad3 fiber knobs. B) Enhancement of irinotecan therapy. A total of 4×10^6 A549 cells were injected subcutaneously into CB17-SCID/beige mice. Once the tumor reached a volume of ˜100 mm^3 (day 15 after implantation), the mice were injected intravenously with 2 mg/kg JO-1, E299V, N186D, or PBS, followed by an intravenous injection of irinotecan (37.5 mg/kg) one hour later. The treatment was repeated on day 25. N=5. […] The difference between “irinotecan” vs “JO-1+irinotecan” was significant (p<0.01) from day 20 on.
FIG. 9. Analysis of dimeric Ad3 fiber knob mutants with increased affinity to DSG2. A) Competition of Ad3-GFP virus infection on HeLa cells with dimeric affinity-enhanced mutant Y250F and JO-1 (dimeric wt Ad3 fiber knob). The experimental setting is as described for FIG. 3C. left panel: percentage of GFP positive cells. Right panel: mean fluorescence intensity. N=3. The standard deviation was less than 10%. B) Competition of Ad3-GFP virus infection on HeLa cells by Ad3 knob mutants with enhanced DSG2 binding but without dimerization domain. 1.5×10^5 HeLa cells were seeded into 24 well plates. Cells were incubated with the Ad3 knob mutants at the increasing concentrations for one hour at room temperature. 100 pfu/cell of Ad3GFP virus were then added and GFP expression was analyzed 18 hours later. C) TEER on colon cancer T84 cells. The experimental setting was the same as for FIG. 5A. The TEER at 4 hours is shown. N=3.
A total of 5×10^5 T84 cells were seeded in 12 mm transwell inserts (PET membrane, with 0.4 μm pore size (Corning, N.Y.) and cultured for >14 days until transepithelial electrical resistance (TEER) was stable. Culture medium was changed every 2-3 days. The cells were exposed to DSG2 ligands (20 μg/ml) in adhesion medium (DMEM, 1% FBS, 2 mM MgCl2, 20 mM HEPES) for 15 min at room temperature and TEER was measured and calculated as described elsewhere (39).

[6] = molecular target: T3, Recombinant human DSG2 protein (Leinco …); assay: SPR (BIAcore 3000), DSG2 immobilised on the sensor chip, knobs injected at 2.5 to 10 µg/ml, BIAeval

Molecule	Inhibition of infection in the presence of dimeric knob (JO-1 = 100%) [2]	Western blot residual DSG2 binding (wtAd3 knob = 100%) [3]	Inhibition of attachment in the presence of dimeric knob (JO-1 = 100%) [4]	further results
B1	–	–	–	binding result [1]: no binding
B2	1.5%	7%	20.1%	–
B3	–	–	–	TEER compared to JO-1 [5]: significantly higher
B4	–	0%	–	–
B5	54%	14%	81%	–
B6	5.1%	3.6%	73.7%	–
B7	5.2%	7%	23.5%	–
B8	32.7%	5.3%	56.5%	–
B9	50.7%	20%	97.3%	–
B10	30.9%	7.1%	73.4%	–
B11	–	–	–	Kd [6]: 49.4 nM; koff [6]: 0.00147 s⁻¹; kon [6]: 29800 M⁻¹ s⁻¹
B12	–	–	–	Kd [6]: 53.9 nM; koff [6]: 0.00317 s⁻¹; kon [6]: 58800 M⁻¹ s⁻¹
B13	–	–	–	Kd [6]: 78.7 nM; koff [6]: 0.00269 s⁻¹; kon [6]: 34200 M⁻¹ s⁻¹
B14	–	–	–	Kd [6]: 73.2 nM; koff [6]: 8.7e-05 s⁻¹; kon [6]: 1190 M⁻¹ s⁻¹

— patent publication US20150246949A1, “Desmoglein 2 (DSG2) Binding Proteins and Uses Therefor” (UNIVERSITY OF WASHINGTON THROUGH ITS CENTER FOR …, priority 2012, published 2015)
